Columns and labels:
[1] = system: CD4+ T cells and CD8+ T cells; assay: T cell proliferation assay, monocytes from blood pre- and 1 h post-MPDL3280A infusion; format: cell-based, human; details: in the presence of circulating MPDL3280A (1 h post- vs pre-infusion), especially with monocytes primed with IFNγ
Protocol: PBMCs were isolated from patient blood samples immediately pre- and 1 h post-treatment with MPDL3280A, as well as from a normal donor by Ficoll and plated in a density of 4×10^6 cells/ml to a 96-well plate. After 2 h at 37° C. non-adherent cells (lymphocyte portion) were removed by pipetting and remaining adherent cells (monocyte portion) were cultured with or without 250 ng/ml IFNγ. At 24 h, non-adherent lymphocytes were labeled with CFSE. Monocytes (IFNγ treated or untreated) were harvested by 5 mM EDTA treatment and resuspended in fresh medium. Both lymphocytes and monocytes were then plated to a 96-well plate pre-coated with 10 μg/ml OKT3 antibody. Proliferation of CD4+ T cells and CD8+ T cells were monitored at 72 h post-stimulation by CSFE dilution.

PD-L1 = target: T1, PD-L1 (Homo sapiens, UniProt Q9NZQ7); assay: Phase 1 study of MPDL3280A in a patient with metastatic lung adenocarcinoma; format: in vivo
T1 construct: their tumor was also tested for PD-L1 expression and found to be positive; endogenous in cells; host or cells: tumour cells and immune cells (macrophages/monocytes) of a patient with metastatic lung adenocarcinoma
T1 sequence (Q9NZQ7 19-290): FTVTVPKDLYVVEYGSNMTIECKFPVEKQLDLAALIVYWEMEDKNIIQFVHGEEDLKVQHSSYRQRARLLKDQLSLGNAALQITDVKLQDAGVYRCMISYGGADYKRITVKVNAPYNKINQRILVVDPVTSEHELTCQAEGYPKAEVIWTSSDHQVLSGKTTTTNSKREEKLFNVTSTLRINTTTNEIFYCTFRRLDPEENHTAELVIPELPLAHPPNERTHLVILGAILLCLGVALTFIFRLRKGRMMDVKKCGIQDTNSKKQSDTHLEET
Protocol: The patient also consented to enroll on a phase 1 multicenter open-label dose-escalation study to evaluate the safety, tolerability, and pharmacokinetics of MPDL3280A (DF/HCC Protocol 11-314; NCT#01375842). […] As part of the inclusion criteria, their tumor was also tested for PD-L1 expression and found to be positive. The drug was administered as a single agent at a dose of 20 mg/kg every 3 weeks. […] Tumor response and evaluation was performed by physical examination and serial chest/abdomenipelvic CT scans, and target lesions were evaluated using RECIST criteria. Following treatment discontinuation at 1 year, the patient has continued to be monitored every 3 months by examination and CT scans.
Thus, after a temporary decline, the patient subsequently received sixteen cycles of MPDL3280A over a one-year period. […] They completed one year of therapy per protocol and remained without evidence of disease progression for an additional 12 months. At this point, they began to lose weight again and developed regrowth of the right adrenal mass (FIG. 1D), leading to re-initiation of MPDL3280A therapy.

[2] = Chemotherapy of the patient before MPDL3280A; format: in vivo, human; details: one patient, single cycle
Source text: He then developed a perirectal abscess and was switched to dose-reduced carboplatin and pemetrexed, together with bevacizumab for three additional cycles and was transitioned to maintenance pemetrexed and bevacizumab.

[3] = one patient, sixteen cycles over one year

Row | Substance | T cell activation (proliferation of autologous or allogeneic CD4+/CD8+ T cells) [1] | Time without evidence of disease progression after completing one year of therapy (PD-L1; off therapy) [months] | Tolerability (PD-L1; one patient, 20 mg/kg every 3 weeks, 16 cycles) | Tumor response by RECIST criteria (PD-L1; one patient, 20 mg/kg every 3 weeks, sixteen cycles over a one-year period) | Size of the paratracheal mass on serial chest CT scans (PD-L1; one patient, FIG. 1 panel C) | Right adrenal lesion on restaging scans after re-initiation of therapy (PD-L1; one patient, after another 3 months of MPDL3280A) | Body weight (PD-L1; [3]) | Narcotic pain medication (PD-L1; [3]) | Symptoms (PD-L1; [3]) | Tolerability [2]
1 | MPDL3280A: an engineered anti-PDL1 antibody (Genentech) | significantly greater | 12 | tolerated well other than a mild flare of their underlying chronic obstructive pulmonary disease | partial response | reduction in size | rapid improvement | return to pre-diagnosis body weight | discontinuation of all narcotic pain medication | complete resolutions of their symptoms | –
2 | carboplatin and paclitaxel | – | – | – | – | – | – | – | – | – | tolerated poorly

Reference: patent US20170115291A1, “Activating JAK Kinase Biomarkers Predictive of Anti-Immune Checkpoint Inhibitor Response” (Dana-Farber Cancer Institute, Inc., priority 2014, published 2017)
